Test system: H1 or H9 human embryonic stem cells
Assay: Activin A bioassay: differentiation of human embryonic stem cells to definitive endoderm, cell number and SOX17 intensity by high content analysis (96-well, four days);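 on Cell Number average: Raw total cell count per well from high content imaging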;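 on Sox 17 Intensity average: total fluorescence of the cell multiplied by cell area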
Assay type: cell-based
Settings: for Sox 17 Intensity % of control: control = R&D Sys Activin A 100 ng/ml on same plate
Procedure, shortened: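 Read-out was cell count and integrated SOX17 immunofluorescence by high-content imaging, with each well divided by the mean of the 100 ng/ml activin A control. Over the four-day culture, test samples were given in DMEM:F12 with 0.5% FCS plus 20 ng/ml Wnt3a for the first two days and in 2% FCS alone for the last two. Cells were H1 or H9 hESC clusters grown on Matrigel.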

[1] = supernatant concentration 10x, assay dilution 1:20, assay plates #007, #009, #010
[2] = supernatant concentration 10x, assay dilution 1:20
[3] = supernatant concentration 50x, assay dilution 1:20, assay plates #008, #009
[4] = supernatant concentration 50x, assay dilution 1:20
[5] = supernatant concentration 1x, assay dilution 1:20
[6] = supernatant concentration 10x, assay dilution 1:40

Molecule | Cell Number average [1] | Sox 17 Intensity average [1] | Sox 17 Intensity % of control [2] [%] | Cell Number average [3] | Sox 17 Intensity average [3] | Sox 17 Intensity % of control [4] [%] | Cell Number average [5] | Sox 17 Intensity average [5] | Sox 17 Intensity % of control [5] [%] | Cell Number average [2] | Sox 17 Intensity average [2] | Cell Number average [6] | Sox 17 Intensity average [6] | Sox 17 Intensity % of control [6] [%]
ACTN92: activin A variant peptide, SEQ ID 93 (protein) GLECDGKVNICCKKQSFGQAKDIGWNDWIIAPSGYHGGGCSGECPSHIAGTSGSSLSFHSTVINHYRMRGHSPFANLKSCCSPTKLRPMSMLYYDDGQNIIKKDIQGMKVEECGCT | 14298 | 5.60E+05 | 2.5 | 15009 | 3.32E+06 | 6.0 | – | – | – | – | – | – | – | –
ACTN61: activin A variant peptide, SEQ ID 62 (protein) GLECDGKVNICCKKQLFGQTKDIGWNDWIIAPSGYHGGSCTGECPSHIAGTSGSSLSFHSTVINHYRMRGHSPNANLKSCCSPTKLRPMSMLYYDDGQNIIKKDIQNMKVEECGCT | 15268 | 1.70E+06 | 6.8 | 15256 | 7.18E+06 | 28.8 | – | – | – | – | – | – | – | –
ACTN93: activin A variant peptide, SEQ ID 94 (protein) GLECDGKVNICCKKQSFGQTKDIGWNDWIIAPSGYHGGGCTGECPSHIAGTSGSSLSFHSTVINHYRMRGHSPFANLKSCCSPTKLRPMSMLYYDDGQNIIKKDIQNMKVEECGCT | 13409 | 5.87E+05 | 2.7 | 15900 | 2.67E+06 | 4.8 | – | – | – | – | – | – | – | –
ACTN74: activin A variant peptide, SEQ ID 75 (protein) GLECDGKVNICCKKQSFGRAKDIGWNDWIIAPSGYHGGGCTGECPSHIAGTSGSSLSFHSTVINHYRMRGHSPFANLKSCCSPTKLRPMSMLYYDDGQNIIKKDIQGMVVEECGCT | 15049 | 3.30E+06 | 13.2 | 16143 | 1.03E+07 | 41.3 | – | – | – | – | – | – | – | –
ACTN78: activin A variant peptide, SEQ ID 79 (protein) GLECDGKVNICCKKQLFGQAKDIGWNDWIIAPSGYHGGGCSGECPSHIAGTSGSSLSFHSTVINHYRMRGHSPVANLKSCCSPTKLRPMSMLYYDDGQNIIKKDIQNMVVEECGCT | 12585 | 1.11E+06 | 4.4 | 16301 | 5.64E+06 | 22.6 | – | – | – | – | – | – | – | –
ACTN50: activin A variant peptide, SEQ ID 51 (protein) GLECDGKVNICCKKQLFGRTKDIGWNDWIIAPSGYHGGGCSGECPSHIAGTSGSSLSFHSTVINHYRMRGHSPVANLKSCCSPTKLRPMSMLYYDDGQNIIKKDIQNMKVEECGCT | 22171 | 1.72E+07 | 12.2 | – | – | – | – | – | – | – | – | – | – | –
ACTN72: activin A variant peptide, SEQ ID 73 (protein) GLECDGKVNICCKKQLFGQAKDIGWNDWIIAPSGYHGGSCTGECPSHIAGTSGSSLSFHSTVINHYRMRGHSPNANLKSCCSPTKLRPMSMLYYDDGQNIIKKDIQNMVVEECGCT | 14638 | 3.44E+06 | 13.8 | 16810 | 6.51E+06 | 26.1 | – | – | – | – | – | – | – | –
ACTN60: activin A variant peptide, SEQ ID 61 (protein) GLECDGKVNICCKKQSFGQTKDIGWNDWIIAPSGYHGGGCSGECPSHIAGTSGSSLSFHSTVINHYRMRGHSPWANLKSCCAPTKLRPMSMLYYDDGQNIIKKDIQNMVVEECGCV | 8303 | 5.90E+05 | 2.4 | 10603 | 3.73E+06 | 15.0 | – | – | – | – | – | – | – | –
ACTN27: activin A variant peptide, SEQ ID 28 (protein) GLECDGKVNLCCKKQLFVSFKDIGWNDWIIAPSGYHANHCDGKCPSHIAGTSGSSLSFHSTVINHYRMRGHSPFANRGACCIPTKLRPMSMLYYDDGQNIIKKDIQNMIVEECGCS | 6664 | 1.39E+07 | 55.7 | 6857 | 2.82E+07 | 113.1 | – | – | – | – | – | – | – | –
ACTN42: activin A variant peptide, SEQ ID 43 (protein) GLECDGKVNYCCKKQDFVSFKDIGWNDWIIAPSGYHANKCSGKCPSHIAGTSGSSLSFHSTVINHYRMRGHSPFSDMGSCCIPTKLRPMSMLYYDDGQNIIKKDIQNMIVEECGCS | 9937 | 3.45E+06 | 13.8 | 7805 | 7.53E+06 | 30.2 | – | – | – | – | – | – | – | –
ACTN6: activin A variant peptide, SEQ ID 7 (protein, Sytnthetic Construct) GLECDGKVNLCCKKQWFVSFKDIGWNDWIIAPSGYHANRCSGKCPSHIAGTSGSSLSFHSTVINHYRMRGHSPFADMGACCIPTKLRPMSMLYYDDGQNIIKKDIQNMIVEECGCS | – | – | 12.4 | – | – | – | 939 | 1.234E+07 | 6.7 | 2359 | 2.272E+07 | 1790 | 1.426E+07 | 7.8
ACTN46: activin A variant peptide, SEQ ID 47 (protein) GLECDGKVNLCCKKQNFVSFKDIGWNDWIIAPSGYHANECGGLCPSHIAGTSGSSLSFHSTVINHYRMRGHSPHANRGACCIPTKLRPMSMLYYDDGQNIIKKDIQNMIVEECGCS | 20757 | 1.99E+07 | 14.1 | – | – | – | – | – | – | – | – | – | – | –
ACTN13: activin A variant peptide, SEQ ID 14 (protein) GLECDGKVNLCCKKQDFVSFKDIGWNDWIIAPSGYHANKCSGKCPSHIAGTSGSSLSFHSTVINHYRMRGHSPFSDMGSCCIPTKLRPMSMLYYDDGQNIIKKDIQNMIVEECGCS | 19861 | 2.78E+07 | 19.7 | – | – | – | – | – | – | – | – | – | – | –
ACTN40: activin A variant peptide, SEQ ID 41 (protein) GLECDGKVNLCCKKQLFVSFKDIGWNDWIIAPSGYHANHCAGLCPSHIAGTSGSSLSFHSTVINHYRMRGHSPFSNMGSCCVPTKLRPMSMLYYDDGQNIIKKDIQNMIVEECGCS | 11321 | 1.21E+08 | 85.6 | – | – | – | – | – | – | – | – | – | – | –
ACTN49: activin A variant peptide, SEQ ID 50 (protein) GLECDGKVNLCCKKQDFVSFKDIGWNDWIIAPSGYHANRCDGLCPSHIAGTSGSSLSFHSTVINHYRMRGHSPFSDMGSCCVPTKLRPMSMLYYDDGQNIIKKDIQNMIVEECGCS | 10076 | 1.60E+07 | 11.3 | – | – | – | – | – | – | – | – | – | – | –
ACTN5: activin A variant peptide, SEQ ID 6 (protein) GLECDGKVNYCCKKQNFVSFKDIGWNDWIIAPSGYHANECSGKCPSHIAGTSGSSLSFHSTVINHYRMRGHSPFSNLGACCIPTKLRPMSMLYYDDGQNIIKKDIQNMIVEECGCS | – | – | 5.6 | – | – | – | 1261 | 1.111E+07 | 6.0 | 1396 | 1.031E+07 | 1382 | 1.311E+07 | 7.1
ACTN15: activin A variant peptide, SEQ ID 16 (protein) GLECDGKVNLCCKKQDFVSFKDIGWNDWIIAPSGYHANRCSGLCPSHIAGTSGSSLSFHSTVINHYRMRGHSPFSNMGSCCIPTKLRPMSMLYYDDGQNIIKKDIQNMIVEECGCS | 22700 | 2.89E+07 | 20.5 | – | – | – | – | – | – | – | – | – | – | –
ACTN36: activin A variant peptide, SEQ ID 37 (protein) GLECDGKVNLCCKKQDFVSFKDIGWNDWIIAPSGYHANRCSGKCPSHIAGTSGSSLSFHSTVINHYRMRGHSPFANMGACCVPTKLRPMSMLYYDDGQNIIKKDIQNMIVEECGCS | 24664 | 2.60E+07 | 18.4 | – | – | – | – | – | – | – | – | – | – | –

— patent US20110091971A1, “Differentiation of Pluripotent Stem Cells” (priority 2008, published 2011)
